Test results from paper PMC7533888.

T1: AtARF5-DBD (Arabidopsis thaliana, UniProt P93024 1-390)
T1 sequence: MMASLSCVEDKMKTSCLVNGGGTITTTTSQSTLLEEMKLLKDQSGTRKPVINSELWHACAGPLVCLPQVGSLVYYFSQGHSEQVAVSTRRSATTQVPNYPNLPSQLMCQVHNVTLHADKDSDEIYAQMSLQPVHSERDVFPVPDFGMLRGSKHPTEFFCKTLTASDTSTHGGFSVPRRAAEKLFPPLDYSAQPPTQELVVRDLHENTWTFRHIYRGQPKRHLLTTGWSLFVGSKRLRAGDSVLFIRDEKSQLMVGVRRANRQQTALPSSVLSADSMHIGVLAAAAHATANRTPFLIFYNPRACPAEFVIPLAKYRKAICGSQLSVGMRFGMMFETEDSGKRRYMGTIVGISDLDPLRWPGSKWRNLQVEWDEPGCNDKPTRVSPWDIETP

T2: AtARF1-DBD (Arabidopsis thaliana, UniProt Q8L7G0 1-355)
T2 sequence: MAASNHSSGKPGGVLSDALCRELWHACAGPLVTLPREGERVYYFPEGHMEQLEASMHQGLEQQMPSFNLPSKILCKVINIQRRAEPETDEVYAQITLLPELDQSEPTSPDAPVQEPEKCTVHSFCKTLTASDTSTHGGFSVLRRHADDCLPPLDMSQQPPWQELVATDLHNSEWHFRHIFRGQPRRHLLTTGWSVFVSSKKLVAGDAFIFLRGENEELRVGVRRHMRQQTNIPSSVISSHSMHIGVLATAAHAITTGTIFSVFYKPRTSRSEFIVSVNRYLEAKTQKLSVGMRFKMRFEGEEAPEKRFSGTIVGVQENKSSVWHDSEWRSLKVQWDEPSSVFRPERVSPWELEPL


Legend:
AtARF5-DBD [1] = biological target: T1, AtARF5-DBD; assay: size-exclusion chromatography
AtARF1-DBD = biological target: T2, AtARF1-DBD; assay: smFRET titration
AtARF5-DBD [2] = biological target: T1, AtARF5-DBD; assay: smFRET titration

| Binder | binding result (AtARF5-DBD [1]) | Kd (AtARF1-DBD) [nM] | Kd (AtARF5-DBD [2]) [nM] |
| --- | --- | --- | --- |
| pTMO5Δ1-IR7 (dsDNA) DNA 1: TGGTCTCTGGTCGGTTTTTTA DNA 2: TAAAAAACCGACCAGAGACCA | no binding |  |  |
| DR5 (dsDNA) DNA 1: ACTGCCTTTTGTCGGCCTTTTGTCGGATCCGTGTG DNA 2: CACACGGATCCGACAAAAGGCCGACAAAAGGCAGT |  | 570 | 60 |
| IR8 (dsDNA) DNA 1: ACTCTTTTTTGTCGGGGAAAAGGCCGACAATCCGTGTG DNA 2: CACACGGATTGTCGGCCTTTTCCCCGACAAAAAAGAGT |  | 140 | 9 |
| pTMO5Δ2-IR7 (dsDNA) DNA 1: TTTTTTTTGGTCGGTTTTTTA DNA 2: TAAAAAACCGACCAAAAAAAA | no binding |  |  |
